What is called Kd is the free concentration of one partner at which half of the binding sites on the other are occupied at equilibrium, for simple one-to-one binding. Low readings indicate higher affinity, high ones lower affinity. The EC50 is the concentration giving half of the maximal effect. The EC50 (read off the curve) is the concentration at which the effect is half-maximal. Read a high EC50 (read off the curve) as a less potent agent.

Like-named read-outs stand apart in the source and are kept apart here.

Assay [1] has as its target T1, Human PD-L1-Fc (human, UniProt Q9NZQ7 19-238).
T1 construct: also called Fc fusion antigen; not shown: Fc part, not described
Kind of assay: ForteBio Octet BLI (row ForteBio-KD); antigen and unit inferred, taken from Table 5. A general note: Biolayer interferometry detects binding as a change in optical thickness at a sensor tip.

For another assay, the target named is Cyno PD-L1-Fc (cyno, UniProt G7PSE7 19-238). Kind of assay: ForteBio Octet BLI; IgG on AHQ sensors, 100 nM antigen; avid. On the procedure: (§1) ForteBio K_D measurements—ForteBio affinity measurements were performed on an Octet RED384 generally as previously described (see, e.g., Estep et al., Mabs 5(2), 270-278 (2013)). Briefly, ForteBio affinity measurements were performed by loading IgGs on-line onto AHQ sensors. Sensors were equilibrated off-line in assay buffer for 30 min and then monitored on-line for 60 seconds for baseline establishment. Sensors with loaded IgGs were exposed to 100 nM antigen for 3 minutes, and afterwards were transferred to assay buffer for 3 min for off-rate measurement. For monovalent affinity assessment Fabs were used instead of IgGs. For this assessment the unbiotinylated Fc fusion antigen was loaded on-line onto the AHQ sensors. Sensors were equilibrated off-line in assay buffer for 30 min and then monitored on-line for 60 seconds for baseline establishment. Sensors with loaded antigen were exposed to 100 nM Fab for 3 minutes, and afterwards they were transferred to assay buffer for 3 min for off-rate measurement. All kinetics were analyzed using the 1:1 binding model.
Chain of Cyno PD-L1-Fc (G7PSE7 entry or part of it limits assumed): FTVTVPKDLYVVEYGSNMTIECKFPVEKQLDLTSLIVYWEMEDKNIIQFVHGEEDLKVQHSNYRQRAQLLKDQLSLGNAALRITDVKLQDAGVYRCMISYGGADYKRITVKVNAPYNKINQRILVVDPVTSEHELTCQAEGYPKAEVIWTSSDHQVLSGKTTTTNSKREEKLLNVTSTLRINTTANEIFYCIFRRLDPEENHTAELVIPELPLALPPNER

The target of assay [2] is T1, Human PD-L1-Fc. The assay is described as above. How it is done: as §1
The target in the next assay is T2, Mouse PD-L1-Fc (mouse, UniProt Q9EP73 19-238, limits assumed).
T2 construct: not shown: Fc part, not described
T2 sequence (Q9EP73 19-238 limits assumed): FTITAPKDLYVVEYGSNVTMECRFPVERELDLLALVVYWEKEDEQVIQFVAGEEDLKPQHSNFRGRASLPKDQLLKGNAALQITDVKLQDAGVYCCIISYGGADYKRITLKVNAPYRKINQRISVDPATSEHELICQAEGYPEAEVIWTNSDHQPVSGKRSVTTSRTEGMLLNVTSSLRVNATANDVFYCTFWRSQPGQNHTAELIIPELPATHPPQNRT
The assay is described as above. On the procedure:
as §1

For assay [3], the target named is T3, PD-L1 on CHO-PD-L1 cells (human, UniProt Q9NZQ7 19-290). Kind of assay: upper panel, MFI against Ab (nM): flow cytometry on CHO cells with PD-L1, anti-human IgG1-PE secondary. The panel has no title; human PD-L1 follows from paragraph 175 (all three bind human PD-L1). On the procedure: (§2) Antibody Activity. Varying concentrations of PD-L1 antibodies, with human IgG1 backbones, were added to CHO cells expressing either human or murine PD-L1 (CHO-PD-L1 cells). Binding was detected by addition of anti-human IgG1 secondary antibody conjugated to phycoerythrin. FACS analysis was performed, detecting phycoerythrin to determine fluorescence activity at a variety of antibody concentrations. EC50 was calculated using GraphPad Prism® software.
T3 sequence (Q9NZQ7 19-290 limits assumed): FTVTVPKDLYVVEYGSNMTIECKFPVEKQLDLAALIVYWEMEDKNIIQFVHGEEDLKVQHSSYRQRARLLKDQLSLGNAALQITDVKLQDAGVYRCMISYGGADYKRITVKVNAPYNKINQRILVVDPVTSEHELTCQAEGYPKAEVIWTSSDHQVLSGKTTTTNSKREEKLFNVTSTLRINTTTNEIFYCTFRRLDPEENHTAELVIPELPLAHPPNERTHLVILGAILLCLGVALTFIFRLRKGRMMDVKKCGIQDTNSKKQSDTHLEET
On the technique in general: Flow cytometry measures light scatter and fluorescence of single cells or particles in a stream.

For assay [4], the target named is T4, Human PD-L1-HIS (human, UniProt Q9NZQ7 19-238).
T4 construct: also called HIS-tagged protein (human PD-L1)
T4 sequence (Q9NZQ7 19-238 limits assumed): as the sequence (G7PSE7 entry or part of it limits assumed) above, with T33A, S34A, N62S, Q68R, R82Q, L173F, A185T, I192T, L215H counted along it
Kind of assay: Octet tandem competition on HIS-tagged human PD-L1; competitor Avelumab. On the procedure: (§3) Epitope binning of PD-L1 antibodies. Binding specificity of a variety of PD-L1 antibodies were compared using a binding competition assay conducted using the ForteBio Octet® platform. Target HIS-tagged protein (human PD-L1) is loaded onto pre-charged Nickel NTA Biosensors at 1 μg/mL. The first Ab1 is saturated on the target-loaded biosensor at 100 nM, and a reference (bufer only) well is included to determine maximal Ab2 binding signal. The second Ab2 is screened for binding signal also at 100 nM, and Ab1 is included to determine background self-blocking signal. Data Analysis HT 9.0 software is used to generate a matrix of raw signal response of Ab2 binding that is then transformed to be expressed as a percentage of the unblocked Ab2 binding signal. Less than 15% response is considered competitive blocking.

Assay [5] deals with T4, Human PD-L1-HIS. Kind of assay: Octet tandem competition on HIS-tagged human PD-L1; competitor Atezolizumab. How it is done:
as §3

In assay [6] the target is T3, PD-L1 on CHO-PD-L1 cells. Kind of assay: cell-based or functional assay.
Assay [7] deals with T5, mouse PD-L1 protein (mouse, UniProt Q9EP73 19-238, limits assumed).
T5 construct: also called murine PD-L1
T5 sequence (Q9EP73 19-238 limits assumed): as the sequence (Q9EP73 19-238 limits assumed) above
Kind of assay: lower panel, MFI against Ab (nM): flow cytometry on CHO cells with murine PD-L1, anti-human IgG1-PE secondary. The panel has no title; murine PD-L1 follows from paragraph 175 (only ADI-20227 binds murine PD-L1 well). On the procedure:
as §2

In assay [8] the target is T4, Human PD-L1-HIS. Kind of assay: Octet tandem competition on HIS-tagged human PD-L1; competitor Durvalumab. On the procedure:
as §3

The target in assay [9] is T1, Human PD-L1-Fc. Kind of assay: ForteBio Octet BLI; Fc fusion antigen on AHQ sensors, 100 nM Fab; monovalent. How it is done:
as §1

In assay [10] the target is T4, Human PD-L1-HIS. Kind of assay: ForteBio Octet BLI; IgG on AHQ sensors, 100 nM antigen; column head says Avid. On the procedure:
as §1

The target of assay [11] is T3, PD-L1 on CHO-PD-L1 cells. Kind of assay: cell-based or functional assay. The source holds these as a separate data set.
For assay [12], the target named is T3, PD-L1 on CHO-PD-L1 cells. Kind of assay: cell-based or functional assay. The source holds these as a separate data set.
For assay [13], the target named is T5, mouse PD-L1 protein. Kind of assay: lower panel, MFI against Ab (nM): flow cytometry on CHO cells with murine PD-L1. The panel has no title; murine PD-L1 follows from paragraph 175. How it is done:
as §2

T1 sequence (Q9NZQ7 19-238 limits assumed): as the sequence (G7PSE7 entry or part of it limits assumed) above, with T33A, S34A, N62S, Q68R, R82Q, L173F, A185T, I192T, L215H counted along it

B1: ADI-20227 (antibody, human IgG1, V domains shown)
VH: QVQLQESGPGLVKPSQTLSLTCTVSGGSIVSGGLYWSWIRQHPGKGLEWIGYIYYAGVTYYNPSLKSRVTISVDTSKNQFSLKLSSVTAADTAVYYCARGPRMGLAGMDVWGQGTTVTVSS
VL: DIQMTQSPSSVSASVGDRVTITCRASQGISSWLAWYQQKPGKAPKLLIYAASSLQSGVPSRFSGSGSGTDFTLTISSLQPEDFATYYCQQANSFPITFGGGTKVEIK
notes: Tested as IgG; also called PD-L1-C1-2; clone family cLC
Take B1: the Kd in the assay with Human PD-L1-Fc [1] turned out to be 0.179 nM; with Cyno PD-L1-Fc, 0.192 nM; with Human PD-L1-Fc [2], 0.179 nM; with Mouse PD-L1-Fc, 0.101 nM. The concentration for a half-maximal effect (EC50) was found to be 1.12 nM with PD-L1 on CHO-PD-L1 cells [3] and 1.13 nM in the assay with mouse PD-L1 protein [7]. The “percentage of the unblocked Ab2 binding signal” value (shortened to “percentage”) in the assay with Human PD-L1-HIS [4] is 0.37%; in the assay with Human PD-L1-HIS [5], -0.52%; with Human PD-L1-HIS [8] it was 0.65%. In addition, the “EC50 for restoration of PD-L1:PD-1 repressed Jurkat T cell activity (row label IC50)” value with PD-L1 on CHO-PD-L1 cells [6] was found to be 0.295 nM.

B2: ADI-20227 Fab (Fab, V domains shown)
VH: B1 VH
VL: B1 VL
For B2, in the assay with Human PD-L1-Fc [9], the Kd was 0.915 nM.

B3: ADI-16403 (antibody, human IgG1, V domains shown)
VH: EVQLVESGGGLVQPGGSLRLSCAASGFTFSSYWMSWVRQAPGKGLEWVANIKSDGSEKYYVDSVKGRFTISRDNAKNSLYLQMNSLRAEDTAVYYCARVTYWADYMDVWGKGTTVTVSS
VL: DIQMTQSPSTLSASVGDRVTITCRASQSISSWLAWYQQKPGKAPKLLIYKASSLESGVPSRFSGSGSGTEFTLTISSLQPDDFATYYCQQSGSLPPTFGGGTKVEIK
notes: Tested as IgG; also called PD-L1-31; clone family 35
Take B3: the Kd is 0.792 nM with Cyno PD-L1-Fc, 0.317 nM in the assay with Human PD-L1-Fc [2] and 0.328 nM in the assay with Human PD-L1-HIS [10]. The binding result with Mouse PD-L1-Fc was “no binding (tested: 100 nM)”. Besides, the figures for the “percentage” value in the assay with Human PD-L1-HIS [4], with Human PD-L1-HIS [5] and with Human PD-L1-HIS [8] were 2.39%, 0.75% and 1.03%, respectively. Further, the 50% effective concentration (EC50 (read off the curve)) in the assay with PD-L1 on CHO-PD-L1 cells [11] is roughly 2 nM.

B4: ADI-16403 Fab (Fab, V domains shown)
VH: B3 VH
VL: B3 VL
notes: also called Fab of ADI-16403
Turning to B4, the Kd with Human PD-L1-Fc [9] was found to be 0.935 nM. This lies in the sub-nanomolar range.

B5: ADI-20803 (antibody, human IgG1, V domains shown)
VH: QVQLVQSGAEVKKPGSSVKVSCKASGGTFRLYAISWVRQAPGQGLEWMGSIIPGFGSANYAQKFQGRVTITADESTSTAYMELSSLRSEDTAVYYCARDGGGGTSAYSFDPWGQGTLVTVSS
VL: EIVLTQSPATLSLSPGERATLSCRASQSVSSYLAWYQQKPGQAPRLLIYDASNRATGIPARFSGSGSGTDFTLTISSLEPEDFAVYYCQQSINFPYTFGGGTKVEIK
notes: Tested as IgG; also called PDL1-1-12; PLD1-1-12
B5: the Kd in the assay with Cyno PD-L1-Fc came out at 0.196 nM; with Human PD-L1-Fc [2], 0.188 nM; in the assay with Mouse PD-L1-Fc, 5.65 nM; in the assay with Human PD-L1-HIS [10], 0.0092 nM. The molecule further came in with a concentration giving a half-maximal response (EC50) in the assay with PD-L1 on CHO-PD-L1 cells [3] of 0.7 nM. The “percentage” value was determined as 3.14% with Human PD-L1-HIS [4], 1.86% in the assay with Human PD-L1-HIS [5] and 2.38% with Human PD-L1-HIS [8]. Besides, the half-maximal effective concentration (EC50 (read off the curve)) with PD-L1 on CHO-PD-L1 cells [12] was roughly 3 nM.

B6: ADI-20803 Fab (Fab, V domains shown)
VH: B5 VH
VL: B5 VL
notes: also called Fab of ADI-20803
Regarding B6, the Kd in the assay with Human PD-L1-Fc [9] turned out to be 0.226 nM.

B7: ADI-20799 (antibody, human IgG1, V domains shown)
VH: QVQLVQSGAEVKKPGASVKVSCKASGYTFTGVYMHWVRQAPGQGLEWMGGIFPIGGTANYAQKFQGRVTITADESTSTAYMELSSLRSEDTAVYYCARDRTSGALYWGQGTLVTVSS
VL: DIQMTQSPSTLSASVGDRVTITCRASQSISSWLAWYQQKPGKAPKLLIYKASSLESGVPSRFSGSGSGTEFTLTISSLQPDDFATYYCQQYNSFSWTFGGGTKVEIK
For the molecule B7, the binding result with mouse PD-L1 protein [13] is “no binding (tested: about 700 nM)”. In addition, the EC50 in the assay with PD-L1 on CHO-PD-L1 cells [3] turned out to be 1.31 nM. Besides, in the assay with PD-L1 on CHO-PD-L1 cells [11], the “EC50 (read off the curve)” value is roughly 0.5 nM.

Values taken from patent US12325747 (University of Texas, dated 2025).
